Laboratory results: the supplement of paper PMC10567573

B1: FBXO3 (parent)
chain: DEEERRRRVFDVPIRRRRCSRLF
B2: MFF (parent)
chain: YTEGISQRMRVPEKLKVAPPNADL

Variants of: B1
Assay: protein stability index of a GFP-peptide fusion (GPS, HEK-293T) (PSI 1-6); higher = more stable
Conditions: c terminus: native
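Also: lentivirally expressed fusions sorted by FACS into six bins by GFP to DsRed ratio, PSI derived from sequencing read proportions per bin multiplied by bin number.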

Row | Variant | protein stability index
1 | DEEEKRRRVFDVPIRRRRCSRLF [R5K] | 3.32
2 | DEEEIRRRVFDVPIRRRRCSRLF [R5I] | 3.44
3 | DEEEERRRVFDVPIRRRRCSRLF [R5E] | 4.12
4 | DEEEDRRRVFDVPIRRRRCSRLF [R5D] | 3.64
5 | DEEECRRRVFDVPIRRRRCSRLF [R5C] | 2.57
6 | DEEEGRRRVFDVPIRRRRCSRLF [R5G] | 3.54
7 | DEEEARRRVFDVPIRRRRCSRLF [R5A] | 3.9
8 | DEEEFRRRVFDVPIRRRRCSRLF [R5F] | 3.24
9 | DEEEHRRRVFDVPIRRRRCSRLF [R5H] | 3.41
10 | LEEERRRRVFDVPIRRRRCSRLF [D1L] | 1.97
11 | KEEERRRRVFDVPIRRRRCSRLF [D1K] | 2.27
12 | QEEERRRRVFDVPIRRRRCSRLF [D1Q] | 1.69
13 | NEEERRRRVFDVPIRRRRCSRLF [D1N] | 2.05
14 | VEEERRRRVFDVPIRRRRCSRLF [D1V] | 2.34
15 | YEEERRRRVFDVPIRRRRCSRLF [D1Y] | 2.57
16 | CEEERRRRVFDVPIRRRRCSRLF [D1C] | 1.58
17 | AEEERRRRVFDVPIRRRRCSRLF [D1A] | 2.65
18 | MEEERRRRVFDVPIRRRRCSRLF [D1M] | 2.97
19 | PEEERRRRVFDVPIRRRRCSRLF [D1P] | 2.55
20 | FEEERRRRVFDVPIRRRRCSRLF [D1F] | 1.92
21 | GEEERRRRVFDVPIRRRRCSRLF [D1G] | 1.91

Row | Variant | protein stability index
22 | TEEERRRRVFDVPIRRRRCSRLF [D1T] | 2.2
23 | HEEERRRRVFDVPIRRRRCSRLF [D1H] | 1.87
24 | IEEERRRRVFDVPIRRRRCSRLF [D1I] | 2.83
25 | WEEERRRRVFDVPIRRRRCSRLF [D1W] | 1.8
26 | SEEERRRRVFDVPIRRRRCSRLF [D1S] | 1.85
27 | EEEERRRRVFDVPIRRRRCSRLF [D1E] | 3.14
28 | DEEDRRRRVFDVPIRRRRCSRLF [E4D] | 3.66
29 | DEEKRRRRVFDVPIRRRRCSRLF [E4K] | 1.98
30 | DEERRRRRVFDVPIRRRRCSRLF [E4R] | 2.9
31 | DEETRRRRVFDVPIRRRRCSRLF [E4T] | 2.14
32 | DEEWRRRRVFDVPIRRRRCSRLF [E4W] | 1.73
33 | DEEARRRRVFDVPIRRRRCSRLF [E4A] | 1.98
34 | DEEMRRRRVFDVPIRRRRCSRLF [E4M] | 3.23
35 | DEEHRRRRVFDVPIRRRRCSRLF [E4H] | 1.99
36 | DEENRRRRVFDVPIRRRRCSRLF [E4N] | 1.92
37 | DEEGRRRRVFDVPIRRRRCSRLF [E4G] | 2.48
38 | DEEQRRRRVFDVPIRRRRCSRLF [E4Q] | 2.72
39 | DEEVRRRRVFDVPIRRRRCSRLF [E4V] | 1.86
40 | DEECRRRRVFDVPIRRRRCSRLF [E4C] | 2.58
41 | DEELRRRRVFDVPIRRRRCSRLF [E4L] | 1.59
42 | DEEFRRRRVFDVPIRRRRCSRLF [E4F] | 2.13

Row | Variant | protein stability index
43 | DEEIRRRRVFDVPIRRRRCSRLF [E4I] | 2.16
44 | DEEYRRRRVFDVPIRRRRCSRLF [E4Y] | 2.14
45 | DEEPRRRRVFDVPIRRRRCSRLF [E4P] | 2.29
46 | DEESRRRRVFDVPIRRRRCSRLF [E4S] | 2.08
47 | DEMERRRRVFDVPIRRRRCSRLF [E3M] | 2.53
48 | DEYERRRRVFDVPIRRRRCSRLF [E3Y] | 1.84
49 | DEIERRRRVFDVPIRRRRCSRLF [E3I] | 1.99
50 | DESERRRRVFDVPIRRRRCSRLF [E3S] | 1.91
51 | DEKERRRRVFDVPIRRRRCSRLF [E3K] | 2.68
52 | DELERRRRVFDVPIRRRRCSRLF [E3L] | 1.48
53 | DEGERRRRVFDVPIRRRRCSRLF [E3G] | 2.19
54 | DEQERRRRVFDVPIRRRRCSRLF [E3Q] | 2.57
55 | DEDERRRRVFDVPIRRRRCSRLF [E3D] | 2.63
56 | DEAERRRRVFDVPIRRRRCSRLF [E3A] | 1.88
57 | DENERRRRVFDVPIRRRRCSRLF [E3N] | 2.79
58 | DEVERRRRVFDVPIRRRRCSRLF [E3V] | 2.54
59 | DERERRRRVFDVPIRRRRCSRLF [E3R] | 2.34
60 | DETERRRRVFDVPIRRRRCSRLF [E3T] | 1.81
61 | DEHERRRRVFDVPIRRRRCSRLF [E3H] | 2.18
62 | DECERRRRVFDVPIRRRRCSRLF [E3C] | 1.94
63 | DEPERRRRVFDVPIRRRRCSRLF [E3P] | 2.32

Row | Variant | protein stability index
64 | DHEERRRRVFDVPIRRRRCSRLF [E2H] | 1.79
65 | DMEERRRRVFDVPIRRRRCSRLF [E2M] | 1.9
66 | DWEERRRRVFDVPIRRRRCSRLF [E2W] | 2.25
67 | DDEERRRRVFDVPIRRRRCSRLF [E2D] | 3.08
68 | DKEERRRRVFDVPIRRRRCSRLF [E2K] | 1.36
69 | DTEERRRRVFDVPIRRRRCSRLF [E2T] | 1.65
70 | DLEERRRRVFDVPIRRRRCSRLF [E2L] | 1.45
71 | DPEERRRRVFDVPIRRRRCSRLF [E2P] | 2.15
72 | DNEERRRRVFDVPIRRRRCSRLF [E2N] | 3.05
73 | DCEERRRRVFDVPIRRRRCSRLF [E2C] | 1.71
74 | DFEERRRRVFDVPIRRRRCSRLF [E2F] | 1.97
75 | DVEERRRRVFDVPIRRRRCSRLF [E2V] | 1.95
76 | DREERRRRVFDVPIRRRRCSRLF [E2R] | 2.33
77 | DIEERRRRVFDVPIRRRRCSRLF [E2I] | 2.52
78 | DGEERRRRVFDVPIRRRRCSRLF [E2G] | 2.58
79 | DQEERRRRVFDVPIRRRRCSRLF [E2Q] | 3.19
80 | DSEERRRRVFDVPIRRRRCSRLF [E2S] | 2.21
81 | DAEERRRRVFDVPIRRRRCSRLF [E2A] | 1.49

Variants of: B2
Assay: as above
Conditions: c terminus: a fixed tail appended

Row | Variant | protein stability index
82 | YTEGISQRMRVPEKLKVAPPNNDL [A22N] | 2.92
83 | YTEGISQRMRVMEKLKVAPPNADL [P12M] | 2.59
84 | YTEGISLRMRVPEKLKVAPPNADL [Q7L] | 2.77
85 | YSEGISQRMRVPEKLKVAPPNADL [T2S] | 3.81
86 | YMEGISQRMRVPEKLKVAPPNADL [T2M] | 3.46
87 | YTEGISQRMRVPEKLTVAPPNADL [K16T] | 3.16
88 | YTEGISQRMRVPTKLKVAPPNADL [E13T] | 2.57
89 | YTEGISQRMRVPYKLKVAPPNADL [E13Y] | 2.54
90 | YTEGISQIMRVPEKLKVAPPNADL [R8I] | 1.57
91 | YTEGISQRMRVPEKFKVAPPNADL [L15F] | 2.53
92 | YTEGISQRMRIPEKLKVAPPNADL [V11I] | 2.96
93 | YTEGISQRMRQPEKLKVAPPNADL [V11Q] | 2.62
94 | YTEGISQRMRVPENLKVAPPNADL [K14N] | 3.44
95 | YTEGISQRSRVPEKLKVAPPNADL [M9S] | 2.55
96 | YTEGISQRARVPEKLKVAPPNADL [M9A] | 2.41
97 | YTERISQRMRVPEKLKVAPPNADL [G4R] | 3.72
